The values that follow come from patent WO2014065403A1 (dated 2014).

Experiment [1] concerns the target T1, partial length CD40 from CD40 amino acid residue 146 onward (human, UniProt P25942 146-277).
T1 construct: also called D4 (by its position in the series D1, D1B2, D2, D2B1, D3, D4); not shown: VSV-G tag added at the C-terminus
Nature of the experiment: FACS on 293T cells transiently expressing partial length CD40.

Experiment [2] deals with T2, partial length CD40 D3 (expressed from the 105th amino acid of CD40) (human, UniProt P25942 105-277).
T2 construct: not shown: VSV-G tag added at the C-terminus
Nature of the experiment: FACS at 1 ug/mL on 293T cells transiently expressing partial length CD40.

The target of experiment [3] is T3, partial length CD40 from CD40 amino acid residue 78 onward (human, UniProt P25942 78-277).
T3 construct: also called D2B1 (by its position in the series D1, D1B2, D2, D2B1, D3, D4); not shown: VSV-G tag added at the C-terminus
Kind of experiment: FACS on 293T cells transiently expressing partial length CD40.

The target of experiment [4] is T4, partial length CD40 D2 (expressed from the 62nd amino acid of CD40) (human, UniProt P25942 62-277).
T4 construct: not shown: VSV-G tag added at the C-terminus
Kind of experiment: FACS at 1 ug/mL on 293T cells transiently expressing partial length CD40.

The next experiment deals with T5, cynomolgus monkey CD40 (cynomolgus monkey, UniProt P25942 21-277 (human entry)).
T5 construct: Stably expressed on CHO cells (pCXN3 vector); also called cynomolgus CD40
T5 chain: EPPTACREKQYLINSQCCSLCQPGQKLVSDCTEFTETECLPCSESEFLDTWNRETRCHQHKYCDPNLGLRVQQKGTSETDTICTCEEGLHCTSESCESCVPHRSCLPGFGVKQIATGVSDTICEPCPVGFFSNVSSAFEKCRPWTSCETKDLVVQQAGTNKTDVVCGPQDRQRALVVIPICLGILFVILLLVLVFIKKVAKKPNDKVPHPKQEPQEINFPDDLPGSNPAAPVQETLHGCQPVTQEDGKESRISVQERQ
Kind of experiment: FACS on CHO cells expressing cynomolgus monkey CD40.

A further experiment concerns the target T6, mouse CD40 (mouse, UniProt P27512 20-289).
T6 construct: Stably expressed on CHO cells (pCXN3 vector)
T6 sequence: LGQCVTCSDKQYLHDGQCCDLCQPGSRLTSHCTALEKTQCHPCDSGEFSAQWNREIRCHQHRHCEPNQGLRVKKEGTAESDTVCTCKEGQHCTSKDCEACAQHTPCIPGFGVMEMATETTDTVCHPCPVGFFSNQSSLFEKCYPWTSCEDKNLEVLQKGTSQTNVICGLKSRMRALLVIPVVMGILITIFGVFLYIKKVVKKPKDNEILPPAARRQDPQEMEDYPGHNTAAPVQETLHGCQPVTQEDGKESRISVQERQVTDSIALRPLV
Kind of experiment: FACS on CHO cells expressing mouse CD40.

B1: antibody of SEQ ID NOs: 15 and 40 (antibody, V domains shown)
VH: QVQLQQSGAELARPGASLKMSCKASGYTFTSYTIHWIKQRPGQGLEWIGYINPSSGYTNDNQKFKDKATLTADKSSTTAYMQLSSLTSEDSAVYYCARLGRPFDYWGQGTTLTVSS
VL: EIVLTQSPALMAASPGEKVTITCSVSSSISSSNLHWYQQKSETSPKPWIYGTSNLASGVPVRFSGSGSGTSYSLTISSMEAEDAATYYCQQWSTYPLTFGSGTKLEIK
notes: clone name not tied; The text speaks of the mature part of these entries
For the molecule B1, the values for the binding result in experiment [1] and in experiment [2] were “no binding (tested: 1 μg/mL)” and “binds”, respectively.

B2: antibody of SEQ ID NOs: 12 and 37 (antibody, V domains shown)
VH: EVQLQHSGAELVKPGSSVKLSCTASDFNIKDAYMHWVKQRPEQGLEWIGRIDPANGKTKYDPKFQDKATITADTSSNTAYLQLNSLTSEDTAVYYCPRNYYGSRYGYFDVWGAGTTVTVSS
VL: QIVLTQSPAILSASPGEKVTITCSASSSVDYMFWFQQKPGTSPKLWIYTTSNLASGVPTRFSGSGSGTSYSLTISRMEAEDAATYYCHQRSSYPLTFGAGTKLELK
notes: as for B1
As for B2, the binding result in experiment [3] is “no binding (tested: 1 μg/mL)”; in experiment [4] it was “binds”.

B3: antibody of SEQ ID NOs: 13 and 38 (antibody, V domains shown)
VH: EVQLQQSGAELVKPGASVKLSCTASGFNIKDSYIHWVKQRPEQGLEWIGRIDPANGNTKYDPKFQGKATITSDTSSSTAYLQLTSLTSEDTAVYYCPRNYYGSTYGYFDVWGAGTTVTVSS
VL: QIVLTQSPAIMSASPGEKVTITCSASSSVSNMHWFQQKAGTSPKLWIYRTSNLASGVPARFSGSGSGTSYSLTISRMEAEDAATYYCQQGSSYPLTFGAGTKLELK
notes: as for B1
As to B3, the results for the binding result in experiment [3] and in experiment [4] were “no binding (tested: 1 μg/mL)” and “binds”, respectively.

B4: antibody of SEQ ID NOs: 8 and 33 (antibody, V domains shown)
VH: EVQLQQSGPELVKPGASVKMSCKASGYTFTNYVMHWVKQKPGQGLEWIGYVNPYNDDTNYNERFKGKATLTSDKSSSTAYMELSSLTSEDSAVYYCARELTGTYWGQGTLVTVSA
VL: DIVMTQAAPSVPVTPGESVSISCRSSKSLLHSNGNTYLYWFLQRPGQSPQLLISRISNLASGVPDRFSGSGSGTAFTLRISRVEAEDVGVYYCMQHVEYPFTFGSGTKLEIK
notes: as for B1
On to B4, for which the binding result in experiment [1] is “no binding (tested: 1 μg/mL)”; in experiment [2], “binds”.

B5: antibody of SEQ ID NOs: 16 and 41 (antibody, V domains shown)
VH: EVQLQQSGPELVKPGASVKMSCKASGYTFINYVIHWVKQKPGQGLEWIGYINPYNDDSNYNEKFKGKATLTSDKSSSTAYMELRSLTSEDSAIYYCARDLIGSYWGQGTTLTVSS
VL: DIVMTQAAPSVIVTPGESVSISCRSSKSLLHSNGNTYFYWFLQRPGQSPQLLISRISNLASGVPDRFSGSGSGTAFTLRISRVEAEDVGIYYCMQHLEYPFTFGAGTKVELK
notes: as for B1
B5: the binding result is “no binding (tested: 1 μg/mL)” in experiment [1] and “binds” in experiment [2].

B6: antibody of SEQ ID NOs: 28 and 53 (antibody, V domains shown)
VH: EVQLQQSGAELVKPGASVKLSCTGSGFNIKDTYMHWVKQRPEQGLEWIGRIDPANGNTKFDPKFQGKATITADTSTNTAYLQVSSLTSEDTAVYYCVRYGYDGYFDYWGQGTTLTVSS
VL: QIVLTQSPAIMSASPGEKVTMTCSVSSSISYMYWYQQKPGTSPKRWIYDTSKLASGVPARFSGSGSGTSYSLTISSMEAEDAATYYCHQRSSYPLTFGAGTKLELK
notes: as for B1
With B6, the binding result in experiment [3] was “no binding (tested: 1 μg/mL)”; in experiment [4], “binds”.

B7: mouse antibody PPAT-071-04 (antibody, V domains shown)
VH: EVQLQQSGPELVKPGASMKISCKASGYSFADYTMNWVKQSHGKKLEWIGLINPYNGGTSYNQKFKDKATLTVDKSSSTAYMELLSLTTEDSAVYYCAEGVNNFADWGQGTTLTVSG
VL: DIVLTQSPTSLAVFLGQRATISCRASKSVSTSGYSYMHWYQQKPGQSPKPLIYLASNLESGVPARFSGSGSGTDFTLNIHPVEEEDAATYYCQHSRELPRTFGGGTKLEIK
notes: Mouse monoclonal IgG from ascites; also called hybridoma NITE BP-01435
As to B7, the binding result in experiment [1] is recorded as “no binding (tested: 1 μg/mL)”; with cynomolgus monkey CD40, “binds”; in experiment [2], “binds”; with mouse CD40, “no binding”.
